From patent publication US20200325187A1 (Genentech, published 2020)

Assays:
hVEGF-A (8-109) [1] = target: T1, hVEGF-A (8-109) (human, UniProt P15692 214-315); assay: competition ELISA: VEGF-A (8-109) coated, constant KDR receptor, peptide titrated; blocked ligand: KDR
T1 sequence (looked up): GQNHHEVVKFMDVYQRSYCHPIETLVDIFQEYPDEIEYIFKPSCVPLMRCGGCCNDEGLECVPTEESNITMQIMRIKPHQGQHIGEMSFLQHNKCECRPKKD
Experimental: Binding specificity of each peptide was established by competition ELISA. […] After blocking with block buffer (PBS with 0.5% BSA and 0.05% TWEEN®20) for 2 hours at room temperature, the receptor-Fc fusions or biotinylated receptors were serially diluted using assay buffer (PBS with 0.5% BSA and 0.05% TWEEN®20) and incubated for 1 hour at room temperature. […] Competition ELISA was conducted in an identical fashion as described above except after blocking, a mixture of serially diluted peptide containing a constant concentration of receptor-Fc fusion or biotinylated receptor (concentration of receptor was set to EC₆₀) was added and incubated for 1 hour. All recombinant human proteins and antibodies were purchased from R &D Systems (Minneapolis, Minn.).

hVEGF-A [2] = target: T2, hVEGF-A (human, UniProt P15692-4 27-191, limits assumed); assay: cell-based or functional assay
hVEGF-A [3] = target: T2, hVEGF-A; assay: SPR
Experimental: (§1) Depending on the format of the assay either a streptavidin sensor (SA) or a dextran-coated (CM5) sensor was utilized as described below.
(§2) Reaction was then quenched by addition of 10 molar excess of Glycine pH 8.0 and the sample was buffer exchanged into PBS using an Amicon 0.5 mL 3000 MWCO ultra-centrifugal filters (EMD Millipore). The biotinylation state of the protein was verified by LC-MS analysis. Biotinylated VEGF-A was then captured on the surface until a resonance unit (RU) signal of about ˜400. For immobilization of VEGF-A on CM5 sensor, the surface was first activated with a mixture of N-ethyl-N′-(3-dimethylaminopropyl)carbodiimide hydrochloride and N-hydroxysuccinimide (EDC/NHS) according to the supplier instructions. VEGF-A was then diluted into coupling buffer (0.1 M Acetate Buffer, pH 5.0) and injected until the signal reached about ˜400 RU followed by a wash with 1 M ethanolamine pH 8.0 to quench remaining activated sites.

hVEGF-A K48A = target: T3, hVEGF-A K48A (human, UniProt P15692-4 34-135, K48A); assay: SPR
T3 construct: position probably counted on the mature protein
T3 sequence (looked up): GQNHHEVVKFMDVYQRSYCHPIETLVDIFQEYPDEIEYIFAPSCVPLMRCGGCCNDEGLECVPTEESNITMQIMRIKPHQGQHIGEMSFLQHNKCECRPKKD
Experimental: as §1, §2

hVEGF-A Q89A = target: T4, hVEGF-A Q89A (human, UniProt P15692-4 34-135, Q89A); assay: SPR
T4 construct: position probably counted on the mature protein
T4 sequence (looked up): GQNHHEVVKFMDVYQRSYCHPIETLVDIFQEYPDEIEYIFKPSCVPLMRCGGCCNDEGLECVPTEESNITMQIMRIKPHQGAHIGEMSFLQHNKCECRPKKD
Experimental: as §1, §2

hVEGF-A Y21A = target: T5, hVEGF-A Y21A (human, UniProt P15692-4 34-135, Y21A); assay: SPR
T5 construct: position probably counted on the mature protein
T5 sequence (looked up): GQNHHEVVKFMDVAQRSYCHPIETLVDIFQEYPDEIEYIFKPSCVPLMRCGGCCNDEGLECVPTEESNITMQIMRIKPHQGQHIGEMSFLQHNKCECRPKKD
Experimental: as §1, §2

hVEGF-A F17A/M81A = target: T6, hVEGF-A F17A/M81A (human, UniProt P15692-4 34-135, F17A; M81A); assay: site-directed mutants, SPR; no numbers printed for this mutant
T6 construct: positions probably counted on the mature protein
T6 sequence (looked up): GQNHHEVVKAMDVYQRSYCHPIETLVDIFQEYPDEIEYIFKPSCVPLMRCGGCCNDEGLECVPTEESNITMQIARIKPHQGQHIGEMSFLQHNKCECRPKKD

PDGF-ββ = PDGF-ββ (human, UniProt P01127 82-190); assay: competition ELISA: PDGF coated, constant PDGFR receptor, peptide titrated
hVEGF-A (8-109) [4] = target: T1, hVEGF-A (8-109); assay: SPR
Experimental: as §1, §2

mouse VEGF-A 164 = target: T7, mouse VEGF-A 164 (mouse, UniProt Q00731-2 27-190); assay: SPR
T7 construct: also called mouse 164
T7 sequence (looked up): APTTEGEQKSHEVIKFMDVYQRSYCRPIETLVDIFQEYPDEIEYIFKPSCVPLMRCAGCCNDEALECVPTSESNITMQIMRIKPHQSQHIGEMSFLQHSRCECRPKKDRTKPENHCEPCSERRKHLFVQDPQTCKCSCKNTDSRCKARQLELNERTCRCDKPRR
Experimental: as §1, §2

rabbit VEGF-A = target: T8, rabbit VEGF-A (rabbit, UniProt G1T1L9 1-398); assay: SPR
T8 sequence: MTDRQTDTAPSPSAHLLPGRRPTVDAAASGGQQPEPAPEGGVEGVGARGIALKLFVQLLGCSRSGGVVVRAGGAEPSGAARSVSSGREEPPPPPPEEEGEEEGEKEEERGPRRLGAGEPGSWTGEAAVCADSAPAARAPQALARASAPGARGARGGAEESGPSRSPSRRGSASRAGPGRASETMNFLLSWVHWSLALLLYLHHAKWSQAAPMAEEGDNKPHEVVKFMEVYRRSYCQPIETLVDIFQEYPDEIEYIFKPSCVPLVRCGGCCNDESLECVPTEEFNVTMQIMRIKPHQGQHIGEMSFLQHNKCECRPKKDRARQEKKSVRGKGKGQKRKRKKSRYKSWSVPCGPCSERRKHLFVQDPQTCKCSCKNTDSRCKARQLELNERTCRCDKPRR
Experimental: as §1, §2

VEGF-B = target: T9, VEGF-B (human, UniProt P49765-2 22-188, limits assumed); assay: competition ELISA: VEGF-B coated, constant Flt-1 receptor, peptide titrated
T9 sequence (looked up): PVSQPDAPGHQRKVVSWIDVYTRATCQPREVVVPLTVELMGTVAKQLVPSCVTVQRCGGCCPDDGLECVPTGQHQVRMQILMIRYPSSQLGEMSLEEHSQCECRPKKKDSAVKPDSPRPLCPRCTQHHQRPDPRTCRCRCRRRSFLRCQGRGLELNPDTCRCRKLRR

Sequence of PDGF-ββ (P01127 82-190): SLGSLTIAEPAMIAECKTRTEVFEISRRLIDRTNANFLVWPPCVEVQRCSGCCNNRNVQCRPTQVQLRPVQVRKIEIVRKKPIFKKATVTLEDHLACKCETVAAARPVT

In the case of GCNIMLPFWGCGRDFECLAGCVCQYYQSCG (designed binder) [VEGF_CKP9.54.90], the “IC50 (read off the curve)” value (hVEGF-A (8-109) [1]) is reported as ~20 nM, the “Cellular IC50” value (hVEGF-A [2]) is reported as 1.35 nM and the “FOLD [..] [..] TO VARIANT 9.54.90” value (hVEGF-A [2]) is reported as 1 fold. For the same binder, the Kd (hVEGF-A [3]) was 0.37 nM, the Kd (hVEGF-A K48A) was 0.19 nM and the Kd (hVEGF-A Q89A) was 8.8 nM. The Kd (hVEGF-A Y21A) was 3.5 nM, the binding result (hVEGF-A F17A/M81A) was “binds” and the binding result (PDGF-ββ) was “no binding (tested: 5 µM)”. For the same binder, the Kd (hVEGF-A (8-109) [4]) was 0.87 nM, the Kd (mouse VEGF-A 164) was 1.31 nM and the Kd (rabbit VEGF-A) was 1.14 nM. GCNIMLPFWGCGRDFECLAGCVCQYYQSCG (designed binder) [VEGF_CKP9.54.90]: no binding (tested: 5 µM) (VEGF-B).
